Reference: patent US20080280834A1, “Compounds and methods for inhibiting apoptosis” (University of Pittsburgh of the Commonwealth System of …, priority 2005, published 2008)
Residues, ends and D or L forms follow the SMILES beside them. No end group written: not given here.

Each compound was assayed against T1, FasR (Homo sapiens, UniProt P25445) (assay: ELISA binding of peptides to FasR (association constant)). Details: ELISA, 1 nM to 1 μM; fourth residue varied.
T1 construct: Fc (IgG Fc fusion partner); purchased R&D Systems 326-FS-050
T1 sequence (P25445 with tags, fused parts or gaps limits assumed): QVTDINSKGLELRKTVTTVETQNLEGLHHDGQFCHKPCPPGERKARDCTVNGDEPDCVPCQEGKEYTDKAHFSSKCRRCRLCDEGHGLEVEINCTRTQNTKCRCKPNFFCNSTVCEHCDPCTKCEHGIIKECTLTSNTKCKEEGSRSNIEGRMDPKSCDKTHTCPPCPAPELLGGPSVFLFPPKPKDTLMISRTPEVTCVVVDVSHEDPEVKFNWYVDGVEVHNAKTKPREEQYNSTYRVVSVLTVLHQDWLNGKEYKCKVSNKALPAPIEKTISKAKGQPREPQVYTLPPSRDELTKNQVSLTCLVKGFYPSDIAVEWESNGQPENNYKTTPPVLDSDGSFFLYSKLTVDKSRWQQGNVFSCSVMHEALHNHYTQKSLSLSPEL
Excerpt: (§1) Cell Lines, Chemicals, Antibodies & Proteins. Recombinant Human Fas/TNFRSF6/Fc Chimera (cat no. 326-FS-050), Human Fas Ligand/TNFSF6 (cat. No. 126-FL), Anti-human Fas TNFRSF6 Polyclonal Antibody (cat. no. AF326) and Anti-6×Histidine Cross-Linking Ab (cat no. MAB050) were purchased from R&D Systems. Anti-human, IgM-HRP (cat. no. AP320P) was purchased from Chemicon International. Phosphate buffered saline (cat. no. P3563), sodium azide (cat. no. 71289) and 3,3′,5,5′-Tetramethylbenzidine (TMB) Liquid Substrate System for ELISA (cat. no. T0440) were purchased from Sigma-Aldrich. Cliniplate 96-well microplates w/enhanced binding (cat. no. 28298-604) were purchased from VWR. Costar, 96-well, cell culture assay plates (cat. no. 3632) were ordered from Corning Incorporated. Jurkat cells (ATCC no. CRL-1990) and L929 (ATCC no. CRL-2148) were purchased from ATCC and were propagated in RPMI 1640 medium with 2 mM L-glutamine, adjusted to contain 1.5 g/L sodium bicarbonate, 4.5 g/L glucose, 10 mM HEPES, and 1 mM sodium pyruvate, 90%; 10% fetal bovine serum. CellTiter Blue Cell Viability Assay (cat. no. TB317) was purchased from Promega.
ELISA. Peptides were dissolved in a coating buffer solution (0.05M Sodium Carbonate, 0.02% Sodium Azide, pH=9.6) at the appropriate concentrations to a final concentration of 10 μM. Dilutions were made accordingly to reach desired experimental concentrations. 100 μl aliquots of the peptide solution was added to each well and incubated for 2 hours. All incubations were carried out with shaking at T=37° C. Wells were washed by pipetting solution out of each well, adding 200 μL of washing solution (PBS-Tween; 0.5%), shaking for 15 minutes and emptying each well. Three wash cycles were carried out prior to addition of 200 μL of blocking solution (1% BSA in PBS buffer) to each well followed by incubation for 2 hours. Wells were then washed (as per above procedure) three times. Protein solutions of the appropriate concentrations (Vsolution 50 μL) were then added and incubated for 2 hours. After washing three times (as per above protocol) Fas specific antibody solution (˜1:20,000) was added to each well in 100 μL aliquots and incubated for 1 hour. After washing three times (as per above protocol) IgM-HRP solution (˜1:20,000) was added to each well in 100 μL aliquots and incubated (with shaking) for 1 hour at T=37° C. Wells were washed three times prior to the addition of ready-to-use TMD, followed by incubation for 30 minutes. 2M H2SO4 (3 drops) was added to stop colorimetric reaction and the absorption was taken at 450 nm on a Perkin-Elmer, Victor3 Model automated plate reader. Data was analyzed using standard regression fits in Excel.
Effect of Amino Acid Substitution on Binding Affinities. The binding affinity of each tetrapeptide was determined by standard ELISA with a concentration range of 1 nM to 1 μM. In the first series of peptides, alterations were made only to the tyrosine residue while retaining the final three amino acids homologous in the parent sequence (LGA).
YLGI [tetrapeptide] was tested, and the “Ka(M − 1), Measured Association Constants (Ka) for YLGA and YLGX Substituted Peptides” value was 3 × 10^7 M − 1.
YLGL [tetrapeptide] was tested, and the “Ka(M − 1), Measured Association Constants (Ka) for YLGA and YLGX Substituted Peptides” value was 3 × 10^7 M − 1.
YLGT [tetrapeptide] was tested, and the “Ka(M − 1), Measured Association Constants (Ka) for YLGA and YLGX Substituted Peptides” value was “no binding observed”.

Same assay, conditions: ELISA, 1 nM to 1 μM; second residue varied
With YFGA [tetrapeptide] the “Ka(M^−1), Measured Association Constants (Ka) YLGA and YXGA Substituted Proteins” value was “no binding”.
With YGGA [tetrapeptide] the “Ka(M^−1), Measured Association Constants (Ka) YLGA and YXGA Substituted Proteins” value was 1e+07 M⁻¹.
YIGA was tested, and the “Ka(M^−1), Measured Association Constants (Ka) YLGA and YXGA Substituted Proteins” value was 2e+08 M⁻¹.
With YTGA [tetrapeptide] the “Ka(M^−1), Measured Association Constants (Ka) YLGA and YXGA Substituted Proteins” value was “no binding”.
YVGA was tested, and the “Ka(M^−1), Measured Association Constants (Ka) YLGA and YXGA Substituted Proteins” value was 2e+08 M⁻¹.

Same assay, conditions: ELISA, 1 nM to 1 μM; third residue varied
For YLAA [tetrapeptide], the “Ka(M^−1), Measured Association Constants (Ka) for YLGA and YLXA Substituted Peptides” value was 1e+06 M⁻¹.
For YLIA [tetrapeptide], the “Ka(M^−1), Measured Association Constants (Ka) for YLGA and YLXA Substituted Peptides” value was “no binding observed”.
For YLLA [tetrapeptide], the “Ka(M^−1), Measured Association Constants (Ka) for YLGA and YLXA Substituted Peptides” value was 1e+06 M⁻¹.
In the case of YldAA, the “Ka(M^−1), Measured Association Constants (Ka) for YLGA and YLXA Substituted Peptides” value is reported as “no binding observed”.

Same assay, conditions: ELISA, concentration range 1 nM to 1 μM; first residue varied
With ALGA [tetrapeptide] the “Ka(M^−1), Measured Association Constants (Ka) for YLGA to XLGA Substituted Peptides” value was “no binding”.
In the case of DLGA [tetrapeptide], the “Ka(M^−1), Measured Association Constants (Ka) for YLGA to XLGA Substituted Peptides” value is reported as 5e+07 M⁻¹.
With ELGA [tetrapeptide] the “Ka(M^−1), Measured Association Constants (Ka) for YLGA to XLGA Substituted Peptides” value was 5e+07 M⁻¹.
For GLGA [tetrapeptide], the “Ka(M^−1), Measured Association Constants (Ka) for YLGA to XLGA Substituted Peptides” value was “no binding”.
ILGA [tetrapeptide] was tested, and the “Ka(M^−1), Measured Association Constants (Ka) for YLGA to XLGA Substituted Peptides” value was 9e+06 M⁻¹.
For KLGA [tetrapeptide], the “Ka(M^−1), Measured Association Constants (Ka) for YLGA to XLGA Substituted Peptides” value was 8e+06 M⁻¹.
With TLGA [tetrapeptide] the “Ka(M^−1), Measured Association Constants (Ka) for YLGA to XLGA Substituted Peptides” value was 2e+08 M⁻¹.

Same assay, conditions: Table 7; peptides based on the α-Met sequence, Fas receptor
With HHIYLGA [HHI YLG A] the “Ka (M^−1), Elongated Peptide Sequences” value was 3e+08 M⁻¹.
With HHIYLGAT [HHI YLG AT] the “Ka (M^−1), Elongated Peptide Sequences” value was 3e+08 M⁻¹.
HHIYLGATN [HHI YLG ATN] was tested, and the “Ka (M^−1), Elongated Peptide Sequences” value was 3e+08 M⁻¹.
HHIYLGATNY [HHI YLG ATN Y] was tested, and the “Ka (M^−1), Elongated Peptide Sequences” value was 3e+08 M⁻¹.
HHIYLGATNYI [HHI YLG ATN YI] was tested, and the “Ka (M^−1), Elongated Peptide Sequences” value was 3e+08 M⁻¹.
For HHIYLGATNYIY [HHI YLG ATN YIY], the “Ka (M^−1), Elongated Peptide Sequences” value was 3e+08 M⁻¹.
For HIYLGATNYIY [HI YLG ATN YIY], the “Ka (M^−1), Elongated Peptide Sequences” value was 3e+08 M⁻¹.
In the case of IYLGATNYIY [I YLG ATN YIY], the “Ka (M^−1), Elongated Peptide Sequences” value is reported as 3e+08 M⁻¹.
With YLGATNYIY [YLG ATN YIY] the “Ka (M^−1), Elongated Peptide Sequences” value was 3e+08 M⁻¹.

Same assay, conditions: relative to parent YLGA
YGGA [tetrapeptide] was tested, and the “decrease in measured Ka” value was 20 fold.

The compounds below were run against T2, TNFR1 (Mus musculus, UniProt P25118) (assay: Inhibition of the TNFR / TNFR1 pathway (EC50)). Details: Table 8.
T2 sequence (P25118 30-454): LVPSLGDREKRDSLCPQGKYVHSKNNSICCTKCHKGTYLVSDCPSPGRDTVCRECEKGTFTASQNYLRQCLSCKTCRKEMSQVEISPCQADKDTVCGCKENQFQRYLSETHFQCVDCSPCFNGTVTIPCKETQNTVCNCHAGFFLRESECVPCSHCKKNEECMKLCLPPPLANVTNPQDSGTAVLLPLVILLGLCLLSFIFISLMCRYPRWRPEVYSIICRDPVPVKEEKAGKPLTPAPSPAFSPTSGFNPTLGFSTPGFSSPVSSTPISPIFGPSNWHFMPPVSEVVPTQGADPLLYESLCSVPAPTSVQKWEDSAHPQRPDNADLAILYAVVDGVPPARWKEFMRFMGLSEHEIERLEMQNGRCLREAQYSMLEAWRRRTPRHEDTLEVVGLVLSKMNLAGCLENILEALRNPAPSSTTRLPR
Type: cell-based
Excerpt: This correlation implies a peptide-protein interaction mechanism, wherein whereby tightly bound peptides are capable of blocking FasL association with the receptor and as such, inhibit FasL induced apoptosis.
RSSYLGA [RSSYLGA] was tested, and the “TNFR1 EC50” value was “no inhibition”.
With RSSYLGAVF-NH2 [RSSYLGAVF] the “TNFR1 EC50” value was “no inhibition”.

These compounds were tested on Jurkat cells (assay: not given). Details: not given.
Type: cell-based, human
Excerpt: as §1
Apoptosis Assay. […] Control reactions were diluted with sterile PBS buffer to final volume of 200 μL per well. Peptide solutions (in PBS buffer, pH=7.3) were added in appropriate volumes to reach the desired concentrations in each well given a total volume of 200 μL per well. Apoptosis was induced by the addition of cross-linked human FasL at a concentration of 0.5 ng/ml. Plates were then incubated under sterile conditions, with shaking in a Kendro, model Hera Cell 150 incubator at T=37° C., % CO2=5 for 3 hours. A Cell Titer Blue Cell Viability Assay kit was used (as per accompanying protocol) to determine % apoptosis in cells. Fluorescence readings (560/590 nm) were taken after 4 hours under above cited incubation conditions on a Perkin-Elmer, Victor3 Model automated plate reader. Data was analyzed using standard regression fits in Excel.
Correlating the In-vitro Binding Assays with Cellular Activity. FasL activated apoptosis is known to occur by binding of the ligand to the receptor thereby initiating a series of signaling events leading to caspase production and subsequent cell death. If the YLGA (SEQ ID NO:1) motif isolated in both the α-Met and FasL proteins, is indeed the primary sequence responsible for binding to FasR then at a given concentration, peptides of sufficient Ka values should preferably bind to the receptor. This in turn would block the binding site from FasL and inhibiting cell death in the presence of both peptide and FasL. In order to examine this possibility, Jurkat cells (known to upregulate the Fas receptor) were treated with varying concentrations of peptide and then exposed to recombinant FasL.
Compound CC(C)C[C@H](NC(=O)[C@@H](N)CC(C)C)C(=O)NCC(=O)N[C@@H](C)C(N)=O [LLGA] (H-LLGA-NH2) has an EC50 of 93 nM.
Compound CC(C)C[C@H](NC(=O)[C@@H](N)CO)C(=O)NCC(=O)N[C@@H](C)C(N)=O [SLGA] (H-SLGA-NH2) has an EC50 of 6 nM.
C[C@H](NC(=O)CNC(=O)[C@H](C)NC(=O)[C@@H](N)Cc1ccc(O)cc1)C(N)=O [YAGA] (H-YAGA-NH2) was tested, and the EC50 was 6 nM.

Same assay, conditions: Table 5; Jurkat cells, peptide then recombinant FasL, cell viability
In the case of “LGA [LGA (trimer), Y-free trimer peptide]”, the “EC50 (nM)” value is reported as “no inhibition”.
For YLAA [tetrapeptide], the “EC50 (nM)” value was “no inhibition”.

Same assay, conditions: Table 8; read-out: Fas EC50
RSSYLGA [RSSYLGA] showed an EC50 of 3.28 nM.
